Results: PMC4752722 (Cell, 2016)

Biological target: the molecule itself
Experiment: cross-linking

B1: CorA double cysteine mutant V183C/A8C (natural protein, Thermotoga maritima)
chain: MEEKRLSCKKGLPPGTLVYTGKYREDFEIEVMNYSIEEFREFKTTDVESVLPFRDSSTPTWINITGIHRTDVVQRVGEFFGIHPLVLEDILNVHQRPKVEFFENYVFIVLKMFTYDKNLHELESEQVSLILTKNCVLMFQEKIGDVFDPVRERIRYNRGIIRKKRADYLLYSLIDALVDDYFCLLEKIDDEIDVLEEEVLERPEKETVQRTHQLKRNLVELRKTIWPLREVLSSLYRDVPPLIEKETVPYFRDVYDHTIQIADTVETFRDIVSGLLDVYLSSVSNKTNEVMKVLTIIATIFMPLTFIAGIYGMNFEYMPELRWKWGYPVVLAVMGVIAVIMVVYFKKKKWL
stoichiometry N: 5
